The target in test [1] is T1, human GPC3 on stably transfected SK-HEP-1 cells (human, UniProt P51654 25-554).
T1 construct: whole, on cells; also called SK-HEP-1::human GPC3
The experiment in a line: MSD-based (ECL) cell binding assay on transfected SK-HEP-1 cells. Here is the method: (§1) Binding of optimized lipocalin muteins of SEQ ID NOs: 5-16 to human, cynomolgus and mouse GPC3 compared to SEQ ID NOs: 3 and 4 was tested on SK-HEP-1 cells using an ECL format (FIG. 1). In this experiment, dilution series of lipocalin muteins were incubated on MSD plates coated with human, cynomolgus or mouse GPC3 overexpressing SK-HEP-1 cells.
(§2) SEQ ID NOs: 3, 4, 5, 7, 8, 9, 10, 12, 13, 14, 15 and 16 (using 1000 nM as starting concentration) were serially diluted at a 1:3 ratio down to the picomolar range in PBS/Casein. 20 μl of the dilution series were transferred to the SK-HEP-1-coated plates for 1 hour at room temperature.
(§3) To allow for detection and quantification of bound GPC3 specific lipocalin muteins, the residual supernatants were discarded and 20 μl of a mixture of rabbit anti scaffold antibody (2 μg/ml) and Sulfotag labelled anti rabbit antibody (5 μg/ml) prepared in PBS/casein was added to the wells and incubated for 1 h at RT. After washing, 35 μl surfactant-free reading buffer was added to each well and the ECL intensity of every well was read using a MSD reader.

The target in test [2] is T2, mouse GPC3 on stably transfected SK-HEP-1 cells (mouse, UniProt Q8CFZ4 25-553).
T2 construct: whole, on cells; also called SK-HEP-1::mouse GPC3; murine GPC3
T2 sequence (Q8CFZ4 25-553 limits assumed): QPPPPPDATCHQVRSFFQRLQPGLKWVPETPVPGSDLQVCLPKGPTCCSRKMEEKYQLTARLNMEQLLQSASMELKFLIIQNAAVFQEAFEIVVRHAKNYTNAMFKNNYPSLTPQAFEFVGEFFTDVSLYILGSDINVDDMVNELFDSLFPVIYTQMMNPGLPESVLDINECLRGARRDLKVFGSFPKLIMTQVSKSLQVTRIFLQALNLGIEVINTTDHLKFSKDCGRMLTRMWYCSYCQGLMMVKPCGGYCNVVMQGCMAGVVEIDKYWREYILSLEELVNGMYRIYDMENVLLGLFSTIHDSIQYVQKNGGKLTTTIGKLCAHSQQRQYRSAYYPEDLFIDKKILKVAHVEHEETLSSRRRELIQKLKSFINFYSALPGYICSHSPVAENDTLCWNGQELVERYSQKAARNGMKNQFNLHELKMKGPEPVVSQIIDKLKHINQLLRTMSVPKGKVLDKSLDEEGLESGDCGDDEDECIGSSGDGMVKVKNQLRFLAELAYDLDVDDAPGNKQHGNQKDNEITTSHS
The description is as above. The procedure: as §1, §2, §3

Test [3] has as its target T3, cynomolgus GPC3 on stably transfected SK-HEP-1 cells (cynomolgus, UniProt A0A2K5VK50 24-553).
T3 construct: whole, on cells; also called SK-HEP-1::cyno GPC3; SK-HEP-1::cynomolugus GPC3
Described as above. The procedure: as §1, §2, §3

Test [4] deals with T4, Human GPC3 (2119-GP; R&D systems), biotinylated (human, UniProt P51654 25-559, biotinylated using standard NHS chemistry).
T4 construct: Bought protein; also called human Glypican-3
T4 sequence (P51654 25-559 limits assumed): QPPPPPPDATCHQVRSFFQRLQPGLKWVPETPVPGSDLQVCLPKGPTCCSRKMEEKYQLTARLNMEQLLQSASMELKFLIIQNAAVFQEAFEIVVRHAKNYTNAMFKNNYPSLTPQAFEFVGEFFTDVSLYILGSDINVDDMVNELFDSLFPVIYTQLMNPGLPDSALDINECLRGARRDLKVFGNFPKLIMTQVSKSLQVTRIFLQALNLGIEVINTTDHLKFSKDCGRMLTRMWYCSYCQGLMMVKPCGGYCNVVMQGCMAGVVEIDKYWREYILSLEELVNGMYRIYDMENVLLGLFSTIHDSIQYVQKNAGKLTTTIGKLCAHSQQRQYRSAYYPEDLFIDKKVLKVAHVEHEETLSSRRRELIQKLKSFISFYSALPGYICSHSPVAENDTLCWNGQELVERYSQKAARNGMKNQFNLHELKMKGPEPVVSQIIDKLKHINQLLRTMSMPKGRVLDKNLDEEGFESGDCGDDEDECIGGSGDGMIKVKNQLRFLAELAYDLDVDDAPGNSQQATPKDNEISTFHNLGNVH
The experiment in a line: SPR (Biacore T200), biotinylated GPC3 captured on chip, mutein in flow. The procedure: (§4) SPR analysis of the binding of the optimized Lcn2 muteins to human and mouse GPC3 was performed at 25° C. on a Biacore T200 instrument (GE Healthcare) using HBS-EP+ (1x; BR-1006-69; GE Healthcare) as running buffer. The Biotin CAPture Kit (GE Healthcare) was used to immobilize biotinylated GPC3 to a chip surface. Human GPC3 (2119-GP; R&D systems) and murine GPC3 (6938-GP; R&D systems) were biotinylated using standard NHS chemistry. Undiluted Biotin CAPture Reagent (streptavidin conjugated with ss-DNA oligo) was captured on a Sensor Chip CAP with the pre-immobilized complementary ss-DNA oligo. Thereafter, biotinylated human or murine GPC3 at 1 μg/ml was applied for 300 s at a flow rate of […].
(§5) Lcn2 muteins were applied in concentrations of 10 nM, 40 nM and 160 nM at a flow rate of 30 μL/min. The dilutions were injected with association times of 180 s and dissociation times of 600 s to obtain ka and kd information. Regeneration of the chip surface was achieved by injecting 6 M Guanidinium-HCl+0.25 M NaOH (120 s) with a flow rate of 10 μL/min. Injection of regeneration solutions was followed by an extra wash step with H₂O and a stabilization period of 120 s.
(§6) The data were double-referenced by subtraction of the corresponding signals measured for the control channel (loaded with Biotin CAPture reagent only) and by subtraction of buffer injections from the binding responses. Association rate constant ka and dissociation rate constant kd for the binding reaction were determined using Biacore T200 Evaluation Software V2.0 for data processing and kinetic fitting. The data were globally fit with 1:1 binding model.
On the technique in general: In SPR one partner is held on a chip, and binding of the other changes the refractive index at the surface.

For test [5], the target named is T5, murine GPC3 (6938-GP; R&D systems), biotinylated (murine, UniProt Q8CFZ4 25-558, limits assumed, biotinylated using standard NHS chemistry).
T5 construct: Bought protein; also called mouse GPC3
T5 sequence (Q8CFZ4 25-558 limits assumed): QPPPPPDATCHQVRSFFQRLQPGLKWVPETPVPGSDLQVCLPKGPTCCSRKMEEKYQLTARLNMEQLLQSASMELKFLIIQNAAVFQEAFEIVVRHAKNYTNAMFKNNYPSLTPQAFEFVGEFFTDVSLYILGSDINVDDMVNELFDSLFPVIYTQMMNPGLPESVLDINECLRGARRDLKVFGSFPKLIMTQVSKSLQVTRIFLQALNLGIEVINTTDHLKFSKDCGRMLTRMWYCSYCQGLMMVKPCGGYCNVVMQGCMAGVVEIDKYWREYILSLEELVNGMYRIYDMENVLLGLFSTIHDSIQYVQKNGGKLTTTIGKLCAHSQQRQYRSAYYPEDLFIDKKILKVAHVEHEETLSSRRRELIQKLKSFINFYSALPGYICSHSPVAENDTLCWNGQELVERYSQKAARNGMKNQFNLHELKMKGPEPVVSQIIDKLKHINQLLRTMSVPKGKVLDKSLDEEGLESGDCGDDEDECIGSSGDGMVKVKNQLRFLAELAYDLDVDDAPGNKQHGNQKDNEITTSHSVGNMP
Described as above. Here is the method:
as §4, §5, §6

The term EC50 denotes the concentration at which the effect is half-maximal. A word on the Kd: it is the constant that tells how readily two partners part at equilibrium. As a reminder, the koff is the first-order rate constant of dissociation. By kon is commonly meant the rate constant with which the complex forms.

T1 sequence (P51654 25-554 limits assumed): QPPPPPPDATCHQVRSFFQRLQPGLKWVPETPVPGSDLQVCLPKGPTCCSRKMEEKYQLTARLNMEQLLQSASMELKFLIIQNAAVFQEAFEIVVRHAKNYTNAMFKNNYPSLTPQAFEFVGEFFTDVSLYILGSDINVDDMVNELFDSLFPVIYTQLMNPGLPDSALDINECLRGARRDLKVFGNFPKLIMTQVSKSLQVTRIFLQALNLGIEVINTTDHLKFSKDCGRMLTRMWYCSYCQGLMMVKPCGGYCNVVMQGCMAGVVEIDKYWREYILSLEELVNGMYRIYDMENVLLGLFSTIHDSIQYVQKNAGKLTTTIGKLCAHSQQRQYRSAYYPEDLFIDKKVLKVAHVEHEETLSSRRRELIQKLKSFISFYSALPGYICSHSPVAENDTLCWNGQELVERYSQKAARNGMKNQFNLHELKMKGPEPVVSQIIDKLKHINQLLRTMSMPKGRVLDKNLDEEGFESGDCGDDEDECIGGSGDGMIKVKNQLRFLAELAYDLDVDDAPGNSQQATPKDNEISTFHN

B1: lipocalin mutein of SEQ ID NO: 8 (designed binder)
chain: QDSTSDLIPAPPLSKVPLQQNFQDNQFQGKWYVVGRAGNVGLREDKDPPKMWATIYELKEDKSYDVTNVRFARKKCLYSIGTFVPGSQPGEFTLGQIKSEPGNTANLVRVVSTNYNQHAMVFFKEVYQNREIFFIILYGRTKELTSELKENFIRFSKSLGLPENHIVFPVPIDQCIDGSAWSHPQFEK
notes: hNGAL (Lcn2) mutein; also called optimized GPC3 specific lipocalin mutein
For the molecule B1, the EC50 in test [1] amounted to 1.4 nM; in test [2], 5.3 nM; in test [3], 2.3 nM. Further, the values for the Kd in test [4] and in test [5] were 0.068 nM and 0.096 nM, respectively. For the same molecule, the figures for the koff in test [4] and in test [5] were 0.00013 s⁻¹ and 0.00018 s⁻¹, respectively. Moreover, the values for the kon in test [4] and in test [5] were 2e+06 M⁻¹ s⁻¹ and 1.9e+06 M⁻¹ s⁻¹, respectively.

B2: lipocalin mutein of SEQ ID NO: 11 (designed binder)
chain: QDSTSDLIPAPPLSKVPLQQNFQDNQFQGKWYVVGRAGNVALREDKDPPKMRATIYELKEDKSYDVTAVRFARKKCLYSIGTFVPGSQPGEFTLGRIKSEPGYTANLVRVVSTNYNQHAMVFFKEVYQNREIFFIILYGRTKELTSELKENFIRFSKSLGLPENHIVFPVPIDQCIDGSAWSHPQFEK
notes: as for B1
For B2, in test [4], binding was characterised by a dissociation constant (Kd) of 0.027 nM, the koff came out at 4.6e-05 s⁻¹ and the kon came out at 1.7e+06 M⁻¹ s⁻¹. In test [5], this molecule came in with a Kd of 0.011 nM, a koff of 3.2e-05 s⁻¹ and an on-rate (kon) of 2.9e+06 M⁻¹ s⁻¹.

B3: lipocalin mutein of SEQ ID NO: 9 (designed binder)
chain: QDSTSDLIPAPPLSKVPLQQNFQDNQFQGKWYVVGRAGNVGLREDKDPPKMWATIYELKEDKSYDVTNVRFARKKCTYSIGTFVPGSQPGEFTLGQIKSEPGGTANLVRVVSTNYNQHAMVFFKEVYQNREIFFIILYGRTKELTSELKENFIRFSKSLGLPENHIVFPVPIDQCIDGSAWSHPQFEK
notes: as for B1
Regarding B3, the EC50 is 1.1 nM in test [1], 4.1 nM in test [2] and 1.9 nM in test [3]. The Kd in test [4] turned out to be 0.054 nM; in test [5] it was 0.075 nM. The koff in test [4] stood at 9.8e-05 s⁻¹; in test [5], 0.00015 s⁻¹. Also, the kon in test [4] came out at 1.8e+06 M⁻¹ s⁻¹; in test [5] it was 2e+06 M⁻¹ s⁻¹.

B4: lipocalin mutein of SEQ ID NO: 4 (designed binder)
chain: QDSTSDLIPAPPLSKVPLQQNFQDNQFHGKWYVVGRAGNVALREDKDPPKMRATIYELKEDKSYNVTNVRFAMKKCMYSIGTFVPGSQPGEFTLGQIKSEPGNTSNLVRVVSTNYNQHAMVFFKEVYQNREIFFITLYGRTKELTSELKENFIRFSKSLGLPENHIVFPVPIDQCIDGSAWSHPQFEK
notes: hNGAL (Lcn2) mutein; also called non-optimized GPC3-specific Lcn2 mutein; mother clone
Consider B4, for which the values for the EC50 in test [1], in test [2] and in test [3] were 10.2 nM, 7.1 nM and 5.7 nM, respectively. In addition, the dissociation constant Kd was found to be 0.877 nM in test [4] and 1.09 nM in test [5]. Further, the koff in test [4] turned out to be 0.0022 s⁻¹; in test [5], 0.0028 s⁻¹. Further, the kon in test [4] is 2.5e+06 M⁻¹ s⁻¹; in test [5], 2.6e+06 M⁻¹ s⁻¹.

B5: lipocalin mutein of SEQ ID NO: 10 (designed binder)
chain: QDSTSDLIPAPPLSKVPLQQNFQDNQFQGKWYVVGRAGNGALREDKDPPKMWATIYELKEDKSYDVTNVRFARKKCVYSIGTFVPGSQPGEFTLGPIKSEPGNTASLVRVVSTNYNQHAMVFFKEVYQNREIFFIILYGRTKELTSELKENFIRFSKSLGLPENHIVFPVPIDQCIDGSAWSHPQFEK
notes: as for B1
Regarding B5, the values for the EC50 in test [1], in test [2] and in test [3] were 0.8 nM, 3.8 nM and 0.8 nM, respectively. Also, the Kd in test [4] stood at 0.063 nM; in test [5], 0.093 nM. Moreover, the koff in test [4] was 0.00012 s⁻¹; in test [5], 0.00017 s⁻¹. In addition, the kon in test [4] and in test [5] was 1.8e+06 M⁻¹ s⁻¹ throughout.

B6: lipocalin mutein of SEQ ID NO: 12 (designed binder)
chain: QDSTSDLIPAPPLSKVPLQQNFQDNQFQGKWYVVGRAGNVALREDKDPPKMRATIYELKEDKSYDVTNVVFAGKKCKYSIGTFVPGSQPGEFTLGRIKSPPGNTANLVRVVSTNYNQHAMVFFKEVYQNREIFFIILYGRTKELTSELKENFIRFSKSLGLPENHIVFPVPIDQCIDGSAWSHPQFEK
notes: as for B1
For the molecule B6, the EC50 is 2 nM in test [1], 5.3 nM in test [2] and 1.7 nM in test [3]. Further, the figures for the dissociation constant Kd in test [4] and in test [5] were 0.037 nM and 0.058 nM, respectively. Also, the koff was 0.00024 s⁻¹ in test [4] and 0.0003 s⁻¹ in test [5]. Also, the kon in test [4] turned out to be 6.5e+06 M⁻¹ s⁻¹; in test [5] it was 5.1e+06 M⁻¹ s⁻¹.

B7: lipocalin mutein of SEQ ID NO: 5 (designed binder)
chain: QDSTSDLIPAPPLSKVPLQQNFQDNQFQGKWYVVGVAGNALLREDKDPLKMRATIYELKEDKSYDVTVVSFWRKKCHYKIGTFVPGSQPGEFTLGDIKSGPGQTSNLVRVVSTNYNQHAMVFFKEVRQNREWFAITLYGRTKELTSELKENFIRFSKSLGLPENHIVFPVPIDQCIDGSAWSHPQFEK
notes: as for B1
Regarding B7, the EC50 in test [1] was 24.1 nM; in test [2] it was 25.6 nM; in test [3], 33.9 nM. For the same molecule, the dissociation constant Kd in test [4] is 0.119 nM; in test [5], 0.207 nM. Also, the values for the koff in test [4] and in test [5] were 0.0002 s⁻¹ and 0.00026 s⁻¹, respectively. Moreover, the results for the kon in test [4] and in test [5] were 1.6e+06 M⁻¹ s⁻¹ and 1.3e+06 M⁻¹ s⁻¹, respectively.

B8: lipocalin mutein of SEQ ID NO: 6 (designed binder)
chain: QDSTSDLIPAPPLSKVPLQQNFQDNQFQGKWYVVGVAGNVRLREDKDPPKMRATIYELKEDKSYDVTGVSFRGKKCHYKIGTFVPGSQPGEFTLGDIKSGPGETSNLVRVVSTNYNQHAMVFFKEVRQNREWFFITLYGRTKELTSELKENFIRFSKSLGLPENHIVFPVPIDQCIDGSAWSHPQFEK
notes: as for B1
For B8, in test [4], binding was put at a Kd of 0.019 nM, the koff is 3.3e-05 s⁻¹ and the kon came to 1.8e+06 M⁻¹ s⁻¹. Moreover, in test [5], the affinity, expressed as Kd, was 0.019 nM; the koff was 4.2e-05 s⁻¹; the kon was 2.2e+06 M⁻¹ s⁻¹.

B9: lipocalin mutein of SEQ ID NO: 7 (designed binder)
chain: QDSTSDLIPAPPLSKVPLQQNFQDNQFQGKWYVVGVAGNGMLREDKDPLKMRATIYELKEDKSYDVTSVAFRNKKCHYKIGTFVPGSQPGEFTLGQIKSGPGETSNLVRVVSTNYNQHAMVFFKEVRQNREWFFITLYGRTKELTSELKENFIRFSKSLGLPENHIVFPVPIDQCIDGSAWSHPQFEK
notes: as for B1
With B9, the EC50 was 2.5 nM in test [1], 4.8 nM in test [2] and 2.8 nM in test [3]. In addition, the Kd was 0.097 nM in test [4] and 0.145 nM in test [5]. Also, the dissociation rate constant (koff) came out at 0.00013 s⁻¹ in test [4] and 0.00015 s⁻¹ in test [5]. In addition, the kon in test [4] is 1.3e+06 M⁻¹ s⁻¹; in test [5], 1e+06 M⁻¹ s⁻¹.

B10: lipocalin mutein of SEQ ID NO: 3 (designed binder)
chain: QDSTSDLIPAPPLSKVPLQQNFQDNQFHGKWYVVGVAGNAMLREDKDPLKMRATIYELKEDKSYNVTGVSFWRKKCHYKIGTFVPGSQPGEFTLGDIKSGPGQTSNLVRVVSTNYNQHAMVFFKEVRQNREWFAITLYGRTKELTSELKENFIRFSKSLGLPENHIVFPVPIDQCIDGSAWSHPQFEK
notes: as for B4
Consider B10, for which the EC50 in test [1] is 24.3 nM; in test [2], 29.8 nM; in test [3] it was 29.9 nM. Besides, the Kd in test [4] came to 0.387 nM; in test [5] it was 0.674 nM. Moreover, the values for the koff in test [4] and in test [5] were 0.00022 s⁻¹ and 0.0003 s⁻¹, respectively. The on-rate (kon) in test [4] was 560000 M⁻¹ s⁻¹; in test [5], 450000 M⁻¹ s⁻¹.
